Source: patent US5639597A, “Cell-free receptor binding assays, the production and use thereof” (Behringwerke Aktiengesellschaft, priority 1990, dated 1997)

T1: IL-4-biotin (Homo sapiens, UniProt P05112)
T1 sequence (P05112 25-153): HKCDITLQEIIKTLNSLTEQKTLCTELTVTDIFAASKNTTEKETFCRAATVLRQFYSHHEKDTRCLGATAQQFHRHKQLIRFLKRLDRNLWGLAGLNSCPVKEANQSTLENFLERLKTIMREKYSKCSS

B1: IL-7RFc: an Fc fusion of the human IL-7 receptor (protein)
chain: ESGYAQNGDLEDAELDDYSFSCYSQLEVNGSQHSLTCAFEDPDVNITNLEFEICGALVEVKCLNFRKLQEIYFIETKKFLLIGKSNICVKVGEKSLTCKKIDLTTIVKPEAPFDLSVVYREGANDFVVTFNTSHLQKKYVKVLMHDVAYRQEKDENKWTHVNLSSTKLTLLQRKLQPAAMYEIKVRSIPDHYFKGFWSEWSPSYYFRTPEINNSSGEMD
B2: G-CSF: ligand used for competition (specificity control) (protein, UniProt P09919 31-207, looked up)
Granulocyte …: TPLGPASSLPQSFLLKCLEQVRKIQGDGAALQEKLVSECATYKLCHPEELVLLGHSLGIPWAPLSSCPSQALQLAGCLSQLHSGLFLYQGLLQALEGISPELGPTLDTLQLDVADFATTIWQQMEELGMAPALQPTQGAMPAFASAFQRRAGGVLVASHLQSFLEVSYRVLRHLAQP

Assays:
[1] = target: T2, TNFRFc (extra-cellular portion of the 80 kD form of the human TNF receptor fused to Fc of human IgG1) (Homo sapiens, UniProt P20333); assay: Cell-free TNF binding assay, competition of ligands with TNF-alpha-biotin; conditions: 200 ng/ml TNFRFc for coating, 20 ng/ml TNF-alpha-biotin, FIG. 8; for effect on binding of TNF-alpha-biotin to TNFRFc: concentrations used
T2 construct: made in house
Experimental: (§1) The assay plate was washed five times with PBS containing 0.05% Tween 20 and then incubated with 275 μl of PBS containing 5% skim milk powder at room temperature for 60 min and then washed as above. Then a "checkerboard titration" was initially carried out in order to determine a suitable combination of receptor and ligand concentrations for the design of the assay. […] After washing as above, incubation with 100 μl of streptavidin-peroxidase (Amersham; 1:250 in DMEM/FCS) was carried out at room temperature for 30 min and then washed as above. The bound peroxidase was detected by the color produced in 100 μl of tetramethylbenzidine substrate solution (Behringwerke). After incubation at room temperature for 30 min, the extinction at 450 nm was measured.

[2] = target: T3, IL-4RFc (extracellular portion of the human receptor for IL-4 fused to Fc of human IgG1) (Homo sapiens, UniProt P24394); assay: Cell-free IL-4 binding assay, competition of ligands with IL-4-biotin; conditions: 300 ng/ml IL-4-biotin, various concentrations of competitor; FIG. 3
T3 construct: It is composed of the extracellular portion of the human receptor for IL-4
Experimental: as §1, with “ELISA plates (Nunc, type B) were coated overnight at 4° C. with 100 μl of an affinity-purified rabbit serum against the CH2 domain of human IgG (Dakopatts). The concentration was 10 μg/ml in PBS (137 mM NaCl, 2.7 mM KCl, 6.1 mM Na2 HPO4, 3.9 mM KH2 PO4, 0.5 mM MgCl2, 0.1 mM CaCl2, pH 7.0). The assay” for “The assay”

[3] = target: T4, GM-CSFRFc (extracellular domain of the human GM-CSF receptor fused to Fc of human IgG1) (Homo sapiens, UniProt P15509); assay: Cell-free GM-CSF binding assay, competition of ligands with GM-CSF-biotin; conditions: 1000 ng/ml GM-CSFRFc for coating, 150 ng/ml GM-CSF-biotin, concentrations used; FIG. 14
T4 construct: made in house; host or cells: COS cells (transient; supernatants used)
Experimental: as §1, with “ELISA plates (Nunc, type B) were coated overnight at 4° C. with 100 μl of an affinity-purified rabbit serum against the CH2 domain of human IgG (Dakopatts). The concentration was 10 μg/ml in PBS (137 mM NaCl, 2.7 mM KCl, 6.1 mM Na2 HPO4, 3.9 mM KH2 PO4, 0.5 mM MgCl2, 0.1 mM CaCl2, pH 7.0). The assay” for “The assay”
Transient expression of pGM-CSFRFc in COS cells was carried out. To do this, COS cells were transfected with pGM-CSFRFc with the aid of DEAE-dextran (EP-A 0325 262).

TNFRFc (human) = assay: competition with TNF-alpha-biotin (20 ng/ml) for plate-bound TNFRFc (200 ng/ml for coating), ELISA format
TNF-alpha-biotin = assay: soluble TNFRFc competing with plate-bound TNFRFc for TNF-alpha-biotin, ELISA format
IL-4-biotin = target: T1, IL-4-biotin; assay: Detection of soluble IL-4 receptor in the cell-free binding assay (competition for IL-4-biotin); conditions: plate coated with 300 ng/ml IL-4RFc; FIG. 4
Experimental: as §1, with “ELISA plates (Nunc, type B) were coated overnight at 4° C. with 100 μl of an affinity-purified rabbit serum against the CH2 domain of human IgG (Dakopatts). The concentration was 10 μg/ml in PBS (137 mM NaCl, 2.7 mM KCl, 6.1 mM Na2 HPO4, 3.9 mM KH2 PO4, 0.5 mM MgCl2, 0.1 mM CaCl2, pH 7.0). The assay” for “The assay”

Molecule | effect on binding of TNF-alpha-biotin to TNFRFc [1] | inhibition of binding of GM-CSF-biotin to GM-CSFRFc [3] | further results
GM-CSF: granulocyte/macrophage colony-stimulating factor, unlabelled ligand | no effect |  | 
IL-1-alpha: interleukin ligand used for competition (specificity control) | no effect | do not inhibit | competition with IL-4-biotin for binding to IL-4RFc [2]: no binding activity
IL-4: interleukin 4, unlabelled ligand used for competition | no effect | do not inhibit | 
TNF-alpha |  | do not inhibit | inhibition of binding of TNF-alpha-biotin, IC50 [1]: 5 ng/mL
TNF-alpha (ligand) |  |  | IC50 (TNFRFc (human)): 5 ng/mL
TNFRFc (Fc fusion) |  |  | IC50 (TNF-alpha-biotin): 35 ng/mL
B1 |  |  | binding activity of soluble receptor/Fc fusion protein in IL-4-biotin competition assay (IL-4-biotin): no binding activity
B2 |  | do not inhibit | 
